According to patent publication US20240166739A1 (KISOJI BIOTECHNOLOGY, published 2024):
One block for each binder: values may come before it.

Columns and labels:
[1] = molecular target: T1, recombinant human PD-1 protein (human, UniProt Q15116 25-167); experiment: ELISA on coated recombinant PD-1, anti-human-Fc-HRP detection
T1 construct: Bought protein; also called human recombinant PD1 protein; PD-1 recombinant protein
Method: (§1) The binding of binding agents comprising anti-PD-1 and -CD47 antigen binding domain to recombinant human or cynomolgous PD-1 (Cedarlane, Cat. No. HPLC-10377-H08H-100) or recombinant human or cynomolgous CD47 (Cedarlane, Cat. No. 12283-H08H-200 and 90869-C08H) was assessed by ELISA (FIG. 9A, FIG. 9B, FIG. 9C, FIG. 9D, FIG. 22, FIG. 23). […] The monoclonal anti-CD47 antibody (clone B6H12) was used as a positive control in CD47 binding assays (Biolegend, Cat. No. 401401).
(§2) Briefly, recombinant proteins were coated on 96-well plates. Plates were covered and left at 4° C. overnight. The next day, plates were washed once with PBS and blocked with blocking buffer for 1 hour at room temperature. Binding agents were tested at the indicated concentration, diluted in the blocking buffer, and incubated for 1 hour at 37° C. After incubation, plates were washed three times with washing buffer. Plates were incubated with anti-human-Fc-HRP (Sigma-Aldrich, Cat. No. APi 13P) diluted at 1:5000 for 1 hour at room temperature, then washed three times with PBS-T washing buffer. The signal was developed with SuperSignal™ ELISA Pico Chemiluminescent Substrate (Thermofisher, Cat. No. 37069). The plates were read on a SpectraMax™ i3x Multi-Mode Microplate Reader (Molecular Devices).

[2] = molecular target: T1, recombinant human PD-1 protein; experiment: ELISA on coated recombinant PD-1 (FIG. 9A)
Method: as §1, §2

[3] = molecular target: T2, human PD-1 on CHO-PD1 cells (human, UniProt Q15116 25-288); experiment: Flow cytometry, 20 µg/mL, CHO-PD1 against CHO parental cells (FIG. 10)
T2 construct: whole, on cells; also called CHO-PD-1 cell line
T2 sequence (Q15116 25-288): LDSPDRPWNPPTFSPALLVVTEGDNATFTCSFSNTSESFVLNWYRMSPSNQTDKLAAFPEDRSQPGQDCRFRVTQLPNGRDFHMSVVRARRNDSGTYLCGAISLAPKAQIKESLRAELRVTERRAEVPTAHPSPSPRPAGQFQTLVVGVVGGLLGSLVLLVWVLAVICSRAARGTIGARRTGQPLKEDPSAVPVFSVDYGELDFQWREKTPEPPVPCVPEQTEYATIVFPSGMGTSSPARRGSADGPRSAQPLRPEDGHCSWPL
Method: The binding of binding agents to cells was assessed by flow cytometry. […] Binding agents comprising anti-PD-1 antigen binding domain, were diluted in FACS staining buffer to 20 μg/mL and added and incubated with cells for 30 minutes on ice. The PD-1 antibody (clone EH12.2H7, Biolegend) was used as a positive control.

T1 sequence (Q15116 25-167 limits assumed): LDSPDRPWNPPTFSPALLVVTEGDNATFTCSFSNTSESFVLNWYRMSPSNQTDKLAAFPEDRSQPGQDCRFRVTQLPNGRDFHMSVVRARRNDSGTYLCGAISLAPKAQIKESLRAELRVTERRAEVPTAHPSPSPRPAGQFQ

binding result [1]: no binding
B1: KC035 (HEWL; HEWL; HEWL negative control binding agent) (Fc fusion)
chain: QVQLVESGGGSVQAGGSLRLSCAASGSTDSIEYMTWFRQAPGKAREGVAALYTHTGNTYYTDSVKGRFTISQDKAKNMAYLRMDSVKSEDTAIYTCGATRKYVPVRFALDQSSYDYWGQGTQVTVSSEPKSCDKTHTCPPCPAPELLGGPSVFLFPPKPKDTLMISRTPEVTCVVVDVSHEDPEVKFNWYVDGVEVHNAKTKPREEQYNSTYRVVSVLTVLHQDWLNGKEYKCKVSNKALPAPIEKTISKAKGQPREPQVYTLPPSREQMTKNQVSLTCLVKGFYPSDIAVEWESNGQPENNYKTTPPVLNSDGSFFLYSKLTVDKSRWQQGNVFSCSVMHEALHNHYTQESLSLSPGKAPAPAPAPAPKAQVQLVESGGGSVQAGGSLRLSCAASGSTDSIEYMTWFRQAPGKAREGVAALYTHTGNTYYTDSVKGRFTISQDKAKNMAYLRMDSVKSEDTAIYTCGATRKYVPVRFALDQSSYDYWGQGTQVTVSSGGGGSGGGGSGGGGSQVQLVESGGGSVQAGGSLRLSCAASGSTDSIEYMTWFRQAPGKAREGVAALYTHTGNTYYTDSVKGRFTISQDKAKNMAYLRMDSVKSEDTAIYTCGATRKYVPVRFALDQSSYDYWGQGTQVTVSS
notes: Three anti-HEWL VHHs in the VHH-Fc-VHH-VHH format; negative control for KC036

binding result [2]: binds | binding result [3]: binds
B2: KC036 (PD-1-specific binding agent; HEWL; PD1; HEWL) (Fc fusion)
chain: QVQLVESGGGSVQAGGSLRLSCAASGSTDSIEYMTWFRQAPGKAREGVAALYTHTGNTYYTDSVKGRFTISQDKAKNMAYLRMDSVKSEDTAIYTCGATRKYVPVRFALDQSSYDYWGQGTQVTVSSEPKSCDKTHTCPPCPAPELLGGPSVFLFPPKPKDTLMISRTPEVTCVVVDVSHEDPEVKFNWYVDGVEVHNAKTKPREEQYNSTYRVVSVLTVLHQDWLNGKEYKCKVSNKALPAPIEKTISKAKGQPREPQVYTLPPSREQMTKNQVSLTCLVKGFYPSDIAVEWESNGQPENNYKTTPPVLNSDGSFFLYSKLTVDKSRWQQGNVFSCSVMHEALHNHYTQESLSLSPGKAPAPAPAPAPKAQVQLQESGGGWVQPGGSLRLSCVASGFTFSRSSMSWHRQAPGKERDLVAIISSSGIITHYSDSVKGRFTISRDNAKDTVYLQMNSLKPEDTAVYVCNAVLDDDSGDYWGQGTQVTVSSGGGGSGGGGSGGGGSQVQLVESGGGSVQAGGSLRLSCAASGSTDSIEYMTWFRQAPGKAREGVAALYTHTGNTYYTDSVKGRFTISQDKAKNMAYLRMDSVKSEDTAIYTCGATRKYVPVRFALDQSSYDYWGQGTQVTVSS
notes: Anti-HEWL VHH - IgG1 hinge-CH2-mutated CH3 - rigid linker - KC009 anti-PD-1 VHH - (G4S)3 - anti-HEWL VHH; expressed as dimer; may comprise a His-tag or not
